# Results: FireProtDB (doi:10.1021/bi961660c)
# Where “and” joins values, the source holds several entries; their conditions need not be identical. Equal entries are not always repeated.
# B1: Tryptophan synthase alpha chain, P0A877 (parent)
# chain: MERYESLFAQLKERKEGAFVPFVTLGDPGIEQSLKIIDTLIEAGADALELGIPFSDPLADGPTIQNATLRAFAAGVTPAQCFEMLALIRQKHPTIPIGLLMYANLVFNKGIDEFYAQCEKVGVDSVLVADVPVEESAPFRQAALRHNVAPIFICPPNADDDLLRQIASYGRGYTYLLSRAGVTGAENRAALPLNHLVAKLKEYNAAPPLQGFGISAPDQVKAAIDAGAAGAISGSAIVKIIEQHINEPEKMLAALKVFVQPMKAATRS
# Variants of: B1
# Settings: Escherichia coli (strain K12), pH 7, 25 °C, GdnHCl, CD, Tris-HCl 20 mM, reversible: yes, structure 1WQ5, whole UniProt chain shown
Variant,ddG of mutation (higher = less stable),unfolding free energy,unfolding free energy (transition: 3),ddG of mutation (higher = less stable) (transition: 3)
P28A,1.91 kcal/mol,6.29 kcal/mol,2.27 kcal/mol and 4.04 kcal/mol,
P57A,0.48 kcal/mol,7.73 kcal/mol,4 kcal/mol and 3.76 kcal/mol,0.24 kcal/mol
P62A,0.31 kcal/mol,7.89 kcal/mol,3.54 kcal/mol and 4.35 kcal/mol,
P96A,2.13 kcal/mol,6.08 kcal/mol,2.63 kcal/mol and 3.44 kcal/mol,1.6 kcal/mol and 0.55 kcal/mol
P132A,1.05 kcal/mol,7.15 kcal/mol,3.33 kcal/mol and 3.85 kcal/mol,
P207A,,,2.44 kcal/mol and 4.62 kcal/mol,
